# In paper PMC4701059 (Molecular microbiology, 2015):
# T1: Rap60 (Bacillus subtilis plasmid pTA1060, UniProt Q45456 2-375)
# T1 sequence: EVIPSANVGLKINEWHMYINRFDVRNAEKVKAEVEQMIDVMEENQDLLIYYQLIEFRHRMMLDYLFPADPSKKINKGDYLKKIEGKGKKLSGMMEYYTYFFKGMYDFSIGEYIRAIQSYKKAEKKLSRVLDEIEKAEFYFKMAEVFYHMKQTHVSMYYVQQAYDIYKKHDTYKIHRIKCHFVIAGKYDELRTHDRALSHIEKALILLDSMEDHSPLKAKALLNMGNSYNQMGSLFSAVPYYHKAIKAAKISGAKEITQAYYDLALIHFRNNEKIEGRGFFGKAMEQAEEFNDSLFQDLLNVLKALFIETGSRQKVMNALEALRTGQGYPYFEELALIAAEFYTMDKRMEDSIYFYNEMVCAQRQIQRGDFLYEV
# T2: ComA;Rap60 (Bacillus subtilis (genomic DNA; strain …, UniProt P14204;Q45456 2-214;2-375, |)
# T2 sequence 1: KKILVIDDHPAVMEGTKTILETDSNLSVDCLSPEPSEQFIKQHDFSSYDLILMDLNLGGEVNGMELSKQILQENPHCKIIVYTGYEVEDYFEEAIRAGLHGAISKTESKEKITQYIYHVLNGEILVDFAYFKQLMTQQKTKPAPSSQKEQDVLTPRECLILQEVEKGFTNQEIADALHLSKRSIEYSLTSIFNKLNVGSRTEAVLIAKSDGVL
# T2 sequence 2: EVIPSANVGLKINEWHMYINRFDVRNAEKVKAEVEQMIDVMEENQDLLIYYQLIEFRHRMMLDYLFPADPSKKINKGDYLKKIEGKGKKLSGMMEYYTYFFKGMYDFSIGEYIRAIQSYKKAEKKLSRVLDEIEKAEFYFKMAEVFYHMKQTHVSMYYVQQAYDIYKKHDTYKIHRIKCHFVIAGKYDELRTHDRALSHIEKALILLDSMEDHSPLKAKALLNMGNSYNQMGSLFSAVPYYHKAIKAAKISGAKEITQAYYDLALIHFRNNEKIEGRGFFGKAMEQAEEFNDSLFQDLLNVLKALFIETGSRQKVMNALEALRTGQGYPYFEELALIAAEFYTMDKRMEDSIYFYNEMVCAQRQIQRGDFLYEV
# T3: ComA;Rap60(R26A) (Bacillus subtilis (genomic DNA; strain …, UniProt P14204;Q45456 2-214;2-375, |R26A)
# T3 sequence 1: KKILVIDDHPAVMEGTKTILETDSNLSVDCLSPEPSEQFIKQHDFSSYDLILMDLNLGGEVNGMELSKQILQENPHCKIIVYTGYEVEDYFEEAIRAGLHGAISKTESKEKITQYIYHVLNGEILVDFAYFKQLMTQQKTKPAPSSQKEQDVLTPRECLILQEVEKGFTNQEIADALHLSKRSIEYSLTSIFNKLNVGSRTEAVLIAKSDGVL
# T3 sequence 2: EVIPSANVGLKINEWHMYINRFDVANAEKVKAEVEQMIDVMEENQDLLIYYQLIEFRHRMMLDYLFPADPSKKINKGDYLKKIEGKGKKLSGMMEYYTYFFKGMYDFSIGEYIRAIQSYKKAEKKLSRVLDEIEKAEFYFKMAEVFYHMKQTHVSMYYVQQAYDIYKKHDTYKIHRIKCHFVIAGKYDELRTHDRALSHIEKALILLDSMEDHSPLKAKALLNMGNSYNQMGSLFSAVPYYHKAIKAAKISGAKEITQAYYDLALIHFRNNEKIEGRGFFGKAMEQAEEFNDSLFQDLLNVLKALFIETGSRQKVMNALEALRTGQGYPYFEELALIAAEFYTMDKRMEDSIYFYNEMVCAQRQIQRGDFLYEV
# T4: ComA;Rap60(R26P) (Bacillus subtilis (genomic DNA; strain …, UniProt P14204;Q45456 2-214;2-375, |R26P)
# T4 sequence 1: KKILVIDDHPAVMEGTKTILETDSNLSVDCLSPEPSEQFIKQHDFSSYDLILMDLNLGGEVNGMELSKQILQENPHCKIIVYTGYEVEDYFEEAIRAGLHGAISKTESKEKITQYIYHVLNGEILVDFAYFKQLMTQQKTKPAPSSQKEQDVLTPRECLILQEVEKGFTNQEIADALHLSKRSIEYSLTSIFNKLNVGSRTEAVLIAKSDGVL
# T4 sequence 2: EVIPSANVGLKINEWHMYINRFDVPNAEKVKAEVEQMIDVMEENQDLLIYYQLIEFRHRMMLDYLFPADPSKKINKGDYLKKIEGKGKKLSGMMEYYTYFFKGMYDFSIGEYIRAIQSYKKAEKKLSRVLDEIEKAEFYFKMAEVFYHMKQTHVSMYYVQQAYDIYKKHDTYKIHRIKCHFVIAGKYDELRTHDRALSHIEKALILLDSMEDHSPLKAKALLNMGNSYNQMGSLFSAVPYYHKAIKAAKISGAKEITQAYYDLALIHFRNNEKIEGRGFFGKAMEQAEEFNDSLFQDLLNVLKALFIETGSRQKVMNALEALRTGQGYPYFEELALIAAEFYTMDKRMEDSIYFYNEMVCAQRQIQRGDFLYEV
# T5: ComA;Rap60(N27A) (Bacillus subtilis (genomic DNA; strain …, UniProt P14204;Q45456 2-214;2-375, |N27A)
# T5 sequence 1: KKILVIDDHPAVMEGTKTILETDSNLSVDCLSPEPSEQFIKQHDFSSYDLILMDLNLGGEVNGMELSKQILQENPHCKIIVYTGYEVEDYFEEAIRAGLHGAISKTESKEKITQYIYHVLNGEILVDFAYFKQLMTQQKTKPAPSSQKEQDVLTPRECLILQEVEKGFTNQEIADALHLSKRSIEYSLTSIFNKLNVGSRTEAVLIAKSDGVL
# T5 sequence 2: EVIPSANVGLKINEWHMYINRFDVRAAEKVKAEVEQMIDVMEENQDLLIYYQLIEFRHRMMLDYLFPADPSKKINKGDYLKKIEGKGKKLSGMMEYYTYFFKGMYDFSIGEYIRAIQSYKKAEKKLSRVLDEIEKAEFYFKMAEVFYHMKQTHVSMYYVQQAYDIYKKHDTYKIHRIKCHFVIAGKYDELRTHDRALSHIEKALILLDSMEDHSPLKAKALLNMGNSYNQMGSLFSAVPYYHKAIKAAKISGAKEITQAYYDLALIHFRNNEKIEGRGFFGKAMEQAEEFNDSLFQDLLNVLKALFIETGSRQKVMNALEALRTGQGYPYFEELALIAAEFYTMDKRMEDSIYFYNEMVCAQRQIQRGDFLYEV
# T6: ComA (Bacillus subtilis (genomic DNA; strain …, UniProt P14204 2-214)
# T6 sequence: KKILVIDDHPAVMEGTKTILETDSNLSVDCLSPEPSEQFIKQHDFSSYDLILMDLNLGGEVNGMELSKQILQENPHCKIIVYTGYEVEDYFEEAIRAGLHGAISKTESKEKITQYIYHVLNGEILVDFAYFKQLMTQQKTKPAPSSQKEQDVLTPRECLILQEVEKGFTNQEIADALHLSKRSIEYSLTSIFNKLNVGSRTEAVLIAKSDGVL
# Columns and labels:
# ComP(CD) (his6-ComP(CD)) = ComP(CD) (his6-ComP(CD)) (Bacillus subtilis, UniProt Q99027); assay: autophosphorylation with γ-32P-ATP, SDS-PAGE, phosphorimaging; format: biochemical; conditions: 0.5 mM ATP; 20 mM MgCl2, pH 8-8.5, 24°C; labelled compound
# Rap60 = molecular target: T1, Rap60; assay: EMSA
# ComA;Rap60 = molecular target: T2, ComA;Rap60; assay: EMSA
# ComA;Rap60(R26A) = molecular target: T3, ComA;Rap60(R26A); assay: EMSA
# ComA;Rap60(R26P) = molecular target: T4, ComA;Rap60(R26P); assay: EMSA
# ComA;Rap60(N27A) = molecular target: T5, ComA;Rap60(N27A); assay: EMSA
# ComA = molecular target: T6, ComA; assay: EMSA
# Chain of ComP(CD) (his6-ComP(CD)) (Q99027 384-769): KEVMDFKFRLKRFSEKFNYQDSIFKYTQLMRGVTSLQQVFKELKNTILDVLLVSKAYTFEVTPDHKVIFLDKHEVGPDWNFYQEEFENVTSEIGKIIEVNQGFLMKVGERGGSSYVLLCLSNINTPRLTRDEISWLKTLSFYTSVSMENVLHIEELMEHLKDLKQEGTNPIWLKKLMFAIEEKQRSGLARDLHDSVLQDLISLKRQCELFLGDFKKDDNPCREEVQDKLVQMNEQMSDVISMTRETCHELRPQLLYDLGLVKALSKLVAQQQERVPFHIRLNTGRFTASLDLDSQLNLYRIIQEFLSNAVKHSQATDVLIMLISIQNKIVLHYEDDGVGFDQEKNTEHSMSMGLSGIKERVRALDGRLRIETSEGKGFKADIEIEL
molecule,measurement,setting,value
Nc1ncnc2c1ncn2[C@@H]1O[C@H](COP(=O)(O)OP(=O)(O)OP(=O)(O)O)[C@@H](O)[C@H]1O [ATP],"autophosphorylation with γ-32P-ATP, SDS-PAGE, phosphorimaging",ComP(CD) (his6-ComP(CD)),"ComP autophosphorylation, ComP~P dephosphorylation, phosphotransfer from ComP to ComA"
minimal consensus ComA binding site (dsDNA) DNA 1: TCATTGCGGCATCCCGCAAGAAACTTTGCGGTC DNA 2: GACCGCAAAGTTTCTTGCGGGATGCCGCAATGA,binding result,Rap60,no binding
same,binding result,ComA;Rap60,binds
same,binding result,ComA;Rap60(R26A),binds
same,binding result,ComA;Rap60(R26P),binds
same,binding result,ComA;Rap60(N27A),binds
same,binding result,ComA,binds
